What all share (conditions): protein: recombinant; label: 32P on both strands; blunt
Data set [1] concerns the target T1, TATA-binding protein (TBP) (Homo sapiens, UniProt P20226 1-339). Nature of the data set: EMSA (kinetic, kd/ka); 5 mM Mg2+; ka 30e3 M-1s-1, kd 6e-4 s-1; 20 mM HEPES-KOH pH 7.6, 5 mM MgCl2, 70 mM KCl, 1 mM DTT, 100 ug/mL BSA, 0.01% NP-40, 5% glycerol, 25 C; 0.3 nM active TBP, ODN 10-60 nM.
The target of data set [2] is T1, TATA-binding protein (TBP). As to the kind of experiment: EMSA (kinetic, kd/ka); 5 mM Mg2+; ka 70e3 M-1s-1, kd 5e-4 s-1; 20 mM HEPES-KOH pH 7.6, 5 mM MgCl2, 70 mM KCl, 1 mM DTT, 100 ug/mL BSA, 0.01% NP-40, 5% glycerol, 25 C; 0.3 nM active TBP, ODN 10-60 nM. For orientation: A gel shift assay detects complexes by their altered migration in electrophoresis.
The target in data set [3] is T1, TATA-binding protein (TBP). Nature of the data set: EMSA (kinetic, kd/ka); 5 mM Mg2+; ka 5.6e3 M-1s-1, kd 13.0e-4 s-1; 20 mM HEPES-KOH pH 7.6, 5 mM MgCl2, 70 mM KCl, 1 mM DTT, 100 ug/mL BSA, 0.01% NP-40, 5% glycerol, 25 C; 0.3 nM active TBP, ODN 10-60 nM.
Data set [4] deals with T1, TATA-binding protein (TBP). As to the kind of experiment: EMSA (kinetic, kd/ka); 5 mM Mg2+; ka 3.5e3 M-1s-1, kd 1.5e-4 s-1; 20 mM HEPES-KOH pH 7.6, 5 mM MgCl2, 70 mM KCl, 1 mM DTT, 100 ug/mL BSA, 0.01% NP-40, 5% glycerol, 25 C; 0.3 nM active TBP, ODN 10-60 nM.
The target in data set [5] is T1, TATA-binding protein (TBP). As to the kind of experiment: EMSA (kinetic, kd/ka); 5 mM Mg2+; ka 2.3e3 M-1s-1, kd 1.8e-4 s-1; 20 mM HEPES-KOH pH 7.6, 5 mM MgCl2, 70 mM KCl, 1 mM DTT, 100 ug/mL BSA, 0.01% NP-40, 5% glycerol, 25 C; 0.3 nM active TBP, ODN 10-60 nM.

This is an account of results in paper PMC4686794, “Obesity-related known and candidate SNP markers can significantly change affinity of TATA-binding protein for human gene promoters”.

A word on the Kd: it is the free concentration of one partner at which half of the binding sites on the other are occupied at equilibrium, for simple one-to-one binding.

T1 sequence (P20226 whole entry): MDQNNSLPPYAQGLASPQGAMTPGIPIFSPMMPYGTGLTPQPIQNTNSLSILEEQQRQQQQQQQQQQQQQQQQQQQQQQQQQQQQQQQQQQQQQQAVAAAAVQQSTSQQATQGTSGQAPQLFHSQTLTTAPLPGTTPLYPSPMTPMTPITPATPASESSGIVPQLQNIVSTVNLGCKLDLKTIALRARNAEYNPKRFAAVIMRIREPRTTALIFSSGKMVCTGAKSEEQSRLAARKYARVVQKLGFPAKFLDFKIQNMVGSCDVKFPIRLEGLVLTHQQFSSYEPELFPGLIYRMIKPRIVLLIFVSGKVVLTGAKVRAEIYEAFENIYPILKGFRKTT

B1: GCG -41g (rs183433761 minor) (dsDNA)
DNA 1: AGCTGGAGAGTGTATAAAAGCAGTGC
DNA 2: GCACTGCTTTTATACACTCTCCAGCT
For B1, in data set [1], the Kd is 18 nM.

B2: GCG WT (dsDNA)
DNA 1: AGCTGGAGAGTATATAAAAGCAGTGC
DNA 2: GCACTGCTTTTATATACTCTCCAGCT
Regarding B2, the Kd in data set [2] was determined as 8 nM.

B3: LEP -35g (rs201381696 minor) (dsDNA)
DNA 1: ATCGGGCCGCTGTAAGAGGGGCGGGC
DNA 2: GCCCGCCCCTCTTACAGCGGCCCGAT
In the case of B3, the Kd in data set [3] stood at 232 nM.

B4: LEP -38a (rs200487063 minor) (dsDNA)
DNA 1: ATCGGGCCACTATAAGAGGGGCGGGC
DNA 2: GCCCGCCCCTCTTATAGTGGCCCGAT
Regarding B4, in data set [4], the equilibrium dissociation constant (Kd) stood at 43 nM.

B5: LEP WT (dsDNA)
DNA 1: ATCGGGCCGCTATAAGAGGGGCGGGC
DNA 2: GCCCGCCCCTCTTATAGCGGCCCGAT
As for B5, in data set [5], the Kd was determined as 78 nM.
